Laboratory results as given in publication doi:10.1101/2024.03.07.583919 (bioRxiv, 2024).

Target: the molecule itself
Assay: SEC

Protein | binding result
wild-type human GCAP1-E6S (Guanylate Cyclase Activating Protein 1), myristoylated (natural protein, myristoylated at the N-terminal (by S. cerevisiae N-myristoyltransferase)) MGNVMSGKSVEELSSTECHQWYKKFMTECPSGQLTLYEFRQFFGLKNLSPSASQYVEQMFETFDFNKDGYIDFMEYVAALSLVLKGKVEQKLRWYFKLYDVDGNGCIDRDELLTIIQAIRAINPCSDTTMTAEEFTDTVFSKIDVNGDGELSLEEFIEGVQKDQMLLDTLTRSLDLTRIVRRLQNGEQDEEGADEAAEAAG | binds
E111V-GCAP1 (human GCAP1-E6S with the cone-rod dystrophy substitution E111V), myristoylated (natural protein, myristoylated at the N-terminal (by S. cerevisiae N-myristoyltransferase)) MGNVMSGKSVEELSSTECHQWYKKFMTECPSGQLTLYEFRQFFGLKNLSPSASQYVEQMFETFDFNKDGYIDFMEYVAALSLVLKGKVEQKLRWYFKLYDVDGNGCIDRDVLLTIIQAIRAINPCSDTTMTAEEFTDTVFSKIDVNGDGELSLEEFIEGVQKDQMLLDTLTRSLDLTRIVRRLQNGEQDEEGADEAAEAAG | binds
